# Source: US20240254227A1 (Alector, published 2024)
# Numbering of substitutions follows the chain as printed.
# T1: human CD300E-Fc (human)
# T1 construct: hIgG1-Fc fusion; the entry is the whole fusion chain
# T1 chain: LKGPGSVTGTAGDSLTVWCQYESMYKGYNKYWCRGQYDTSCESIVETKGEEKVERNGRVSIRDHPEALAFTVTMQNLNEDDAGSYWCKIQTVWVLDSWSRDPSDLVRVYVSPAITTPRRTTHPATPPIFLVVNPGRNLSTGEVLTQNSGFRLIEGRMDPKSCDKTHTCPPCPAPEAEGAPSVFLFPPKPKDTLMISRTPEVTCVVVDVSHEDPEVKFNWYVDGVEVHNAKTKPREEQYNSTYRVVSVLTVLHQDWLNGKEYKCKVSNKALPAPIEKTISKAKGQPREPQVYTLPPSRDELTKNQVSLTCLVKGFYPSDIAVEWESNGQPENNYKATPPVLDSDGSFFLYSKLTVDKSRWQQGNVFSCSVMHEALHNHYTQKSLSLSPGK
# T2: murine CD300D-Fc (mouse)
# T2 construct: mouse IgG2a-Fc fusion (R&D Systems); the entry is the whole fusion chain; also called mCD300D; Mouse CD300D-Fc
# T2 chain: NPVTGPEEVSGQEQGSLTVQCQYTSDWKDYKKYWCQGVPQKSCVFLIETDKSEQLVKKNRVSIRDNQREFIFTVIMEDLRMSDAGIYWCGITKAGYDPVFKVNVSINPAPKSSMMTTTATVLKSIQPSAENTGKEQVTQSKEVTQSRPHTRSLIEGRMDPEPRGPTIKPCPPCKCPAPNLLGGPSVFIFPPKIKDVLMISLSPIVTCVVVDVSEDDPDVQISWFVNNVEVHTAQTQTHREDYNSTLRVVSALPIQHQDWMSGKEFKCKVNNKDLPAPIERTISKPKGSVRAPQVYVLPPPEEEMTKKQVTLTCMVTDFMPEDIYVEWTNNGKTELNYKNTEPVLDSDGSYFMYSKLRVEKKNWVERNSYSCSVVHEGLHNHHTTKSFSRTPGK
# T3: murine CD300C-Fc (mouse)
# T3 construct: mouse IgG2a-Fc fusion (R&D Systems); the entry is the whole fusion chain; also called mCD300C; Mouse CD300C-Fc
# T3 chain: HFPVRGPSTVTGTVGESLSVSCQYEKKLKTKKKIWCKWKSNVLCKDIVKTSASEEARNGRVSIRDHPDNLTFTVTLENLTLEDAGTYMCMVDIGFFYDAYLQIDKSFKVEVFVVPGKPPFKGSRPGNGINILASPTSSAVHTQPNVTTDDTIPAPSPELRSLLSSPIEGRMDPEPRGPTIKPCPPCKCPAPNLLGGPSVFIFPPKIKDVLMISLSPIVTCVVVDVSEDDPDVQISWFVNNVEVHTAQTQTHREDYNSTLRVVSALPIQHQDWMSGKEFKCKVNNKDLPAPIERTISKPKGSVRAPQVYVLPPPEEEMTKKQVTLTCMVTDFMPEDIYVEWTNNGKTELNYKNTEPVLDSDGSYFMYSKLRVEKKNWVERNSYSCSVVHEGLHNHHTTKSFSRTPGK
# T4: human CD300C-Fc (human)
# T4 construct: hIgG1-Fc fusion; the entry is the whole fusion chain
# T4 chain: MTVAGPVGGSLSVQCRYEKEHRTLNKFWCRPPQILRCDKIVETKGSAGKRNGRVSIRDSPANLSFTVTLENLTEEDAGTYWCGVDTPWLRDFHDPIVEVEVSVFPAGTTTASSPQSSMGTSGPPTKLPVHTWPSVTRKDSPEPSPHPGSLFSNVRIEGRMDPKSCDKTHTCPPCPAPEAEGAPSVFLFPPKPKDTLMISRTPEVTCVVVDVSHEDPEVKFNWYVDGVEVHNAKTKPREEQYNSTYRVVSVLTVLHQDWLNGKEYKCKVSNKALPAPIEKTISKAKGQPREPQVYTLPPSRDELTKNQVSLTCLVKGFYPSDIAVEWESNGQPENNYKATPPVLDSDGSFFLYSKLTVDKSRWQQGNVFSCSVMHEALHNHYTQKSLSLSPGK
# B1: anti-CD300LB antibody CD-02 (antibody, V domains shown)
# VH: QVQLQQPGAELVRPGSSVKLSCQASGYTFTNYWMHWVRQRPIQGLEWIGNIDPSDSETHYNQKFKDRATLTVDKSSSTAYMQLSSLTSEDSAVYYCARSGVYDDEGGDYWGQGTTLTVSS
# VL: ENVLTQSPAIMSASPGEKVTMTCSASSSVSYIHWYQQKSSTSPKLWIYDTSKLASGVPGRFSGSGSGNSYSLTISSMETEDVATYYCFQGSGYPLTFGAGTKLELK
# B2: anti-CD300LB antibody CD-03 (antibody, V domains shown)
# VH: EVQLQQSGPELVKPGASVKISCKASGYTFTDYYINWVRQSHGKSLECIGDINPNNGGTNYNQKFKGKATLTVDRSSNTAYMEFRSLTFDDSALYYCAAEGAYWGQGTLVTVSA
# VL: not shown
# B3: anti-CD300LB antibody CD-01 (antibody, V domains shown)
# VH: RVQLQQSGAELVRPGASVTLSCKASGFTFTDFEMHWVKKTPVHGLEWIGAIDPESGNTAYNQKFRGKATLTADKSSSTAYMELRYLTSEDSAVYYCTPLISGADYWGQGTTLTVSS
# VL: DVVMTQSPLSLPVSLGDQASISCRSSQSLVHSDGNTYLYWYLQKPGQSPKLLIYKVSNRFSGVPDRFSGSGSGTDFTFKISRVGAEDLGVYFCSQSTHVPWTFGGGTKLEII
# B4: anti-CD300LB antibody CD-05 (antibody, V domains shown)
# VH: QVQLVQSGAEVKKPGASVKVSCKASGYTFSRYYINWVRQAPGQGLEWMGWINPNSGGTNYAQKFQGRVTMTRDTSTSTVYMELSSLRSEDTAVYYCTTDQLRFGKTGPYYGMDVWGQGTTVTVSS
# VL: DIQMTQSPSSLSASVGDRVTITCRASQNIGTYLNWYQQKPGKAPKLLIYAASSLQSGVPSRFSGSGSGTDFTLTISSLQPEDFATYYCQQSYSDTLTFGGGTKVEIK
# B5: anti-CD300LB antibody CD-12 (antibody, V domains shown)
# VH: QIQLVQSGPELKKPGETVKISCKASGYTFTDYSMHWVRQAPGKGLKWMAWINTETGEATHADDFKGRFDFSLDTSASTAYLQIKNLKNEDTGIYFCVCYGSSYGMDYWGQGTSVTVSS
# VL: DIVLTQSPASLPVSLGQRATISCRASKSVRTSGASYMHWYQQKPGQPPKLLIYLASNLKSGVPTRFSGSGSGTDFTLNIHPVEEEDAATYYCQHNREVPPTFGGGTKLEIK
# B6: anti-CD300LB antibody CD-17 (antibody, V domains shown)
# VH: QIQLVQSGPELKKPGETVKISCKASGYTLTDYSMHWVKQAPGKGLKWMGWINTETGEPRYGDDFKGRFAFSLETSASSAYLQINNLKNDDTATYFCATYGRSYGMDFWGQGTSVTVSS
# VL: B5 VL with P12A, R30S, T31P, A34H, T64A, E85G, V98L, T106S
# B7: anti-CD300LB antibody CD-15 (antibody, V domains shown)
# VH: QIQLVQSGPELKKPGETVKISCQVSGYTFTDYSMHWLKQAPGKGLKWMAWINTETGESTYTDEFKGRFVFSLETSVRTAYLKINNLKNEDTATYFCGTYGSSYGMAYWGQGTSVTVSS
# VL: B5 VL with R30S, A34S, M37L, N57K, K59E, T64A, S67R
# B8: anti-CD300LB antibody CD-11 (antibody, V domains shown)
# VH: QIQLVQSGPEVKKPGETVKISCKASGYTLTDYSMHWVMQTPGTGLKWMAWMNTETGEPTYADDFKGRFAFSLETSAGTAYLQIDNLKNEDTATYFCATYGKSYGMKYWGQGTSVTVSS
# VL: DIVLTQSPPSLAVSLGQRATISCRATKSVSPYLHWYQQTPGQPPKLLIYLASNLDSGVPARFSGSGSGTDFTLNIHPVEEEDAATYYCQHNKELPPTFGGGTRLEIK
# B9: anti-CD300LB antibody CD-18 (antibody, V domains shown)
# VH: DVQLQESGPDLVKPSQSLSLTCTVTGYSITSGYSWHWIRQFPDNKLEWMGYILSRGDTNFNPSLKSRISITRSTSNNQFFLHFNSVTTEDTATYYCARDFFDYWGQGTTLTVSS
# VL: DVLMTQTPLSLPVSLGDQASISCRSSQSIVHSNGNTYLEWYLQKPGQSPKLLIYKVSDRFSGVPDRFSGSGSGTDFTLKISRVEAEDLGVYFCFQGSHVPYTFGGGTKLEIK
# Target: T1, human CD300E-Fc
# Test: SPR (Carterra LSA), antibody immobilised
# Outline: (§1)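 Mouse anti-CD300LB IgG1 antibodies were amine-coupled in a 96-spot array on an HC200M chip; Fc-fused CD300 ectodomains (human on hIgG1-Fc) flowed over as analytes at 300 nM or 600 nM in HBS-TE with 0.5 mg/ml BSA, injected in series without regeneration, with kinetics fitted by high-throughput analysis.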
row,binding result,Binder
1,no binding (tested: 300 nM or 600 nM),B1
2,no binding (tested: 300 nM or 600 nM),B2
3,no binding (tested: 300 nM or 600 nM),B3
4,no binding (tested: 300 nM or 600 nM),B4

# Target: T2, murine CD300D-Fc
# Test: SPR (Carterra LSA), antibody immobilised
# Outline: as §1
row,binding result,Binder
1,no binding (tested: 300 nM or 600 nM),B5
2,no binding (tested: 300 nM or 600 nM),B6
3,no binding (tested: 300 nM or 600 nM),B7
4,no binding (tested: 300 nM or 600 nM),B8
5,no binding (tested: 300 nM or 600 nM),B9

# Target: T3, murine CD300C-Fc
# Test: SPR (Carterra LSA), antibody immobilised
# Outline: as §1
row,binding result,Binder
1,no binding (tested: 300 nM or 600 nM),B5
2,no binding (tested: 300 nM or 600 nM),B6
3,no binding (tested: 300 nM or 600 nM),B9

# Target: T4, human CD300C-Fc
# Test: SPR (Carterra LSA), antibody immobilised
# Outline: as §1
row,binding result,Binder
1,no binding (tested: 300 nM or 600 nM),B1
2,no binding (tested: 300 nM or 600 nM),B2
3,no binding (tested: 300 nM or 600 nM),B3
4,no binding (tested: 300 nM or 600 nM),B4
